According to US20230213525:

T1: ElaSub1_CBM_His chimeric protein (variant 3), separated from the TrxA tag and coupled with Remazol Brilliant Blue
T1 chain: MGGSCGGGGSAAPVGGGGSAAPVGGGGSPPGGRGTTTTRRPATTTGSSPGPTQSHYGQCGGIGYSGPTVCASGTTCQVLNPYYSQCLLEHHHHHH

T2: TrxA_ElaSub1_CBM-His fusion protein
T2 chain: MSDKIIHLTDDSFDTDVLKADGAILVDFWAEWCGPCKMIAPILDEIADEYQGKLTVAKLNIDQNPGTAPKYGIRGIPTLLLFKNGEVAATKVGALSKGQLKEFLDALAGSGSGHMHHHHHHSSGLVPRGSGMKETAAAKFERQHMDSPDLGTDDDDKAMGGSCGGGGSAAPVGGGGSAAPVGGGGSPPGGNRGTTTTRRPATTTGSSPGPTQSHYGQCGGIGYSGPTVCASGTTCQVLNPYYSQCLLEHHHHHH

B1: human leukocyte elastase (HLE) (protein)
chain: IVGGRRARPHAWPFMVSLQLRGGHFCGATLIAPNFVMSAAHCVANVNVRAVRVVLGAHNLSRREPTRQVFAVQRIFENGYDPVNLLNDIVILQLNGSATINANVQVAQLPAQGRRLGNGVQCLAMGWGLLGRNRGIASVLQELNVTVVTSLCRRSNVCTLVRGRQAGVCFGDSGSPLVCNGLIHGIASFVRGGCASGLYPDAFAPVAQFVNWIDSIIQ
B2: recombinant expressed bovine enterokinase from Merck Millipore (protein)
chain: IVGGSDSREGAWPWVVALYFDDQQVCGASLVSRDWLVSAAHCVYGRNMEPSKWKAVLGLHMASNLTSPQIETRLIDQIVINPHYNKRRKNNDIAMMHLEMKVNYTDYIQPICLPEENQVFPPGRICSIAGWGALIYQGSTADVLQEADVPLLSNEKCQQQMPEYNITENMVCAGYEAGGVDSCQGDSGGPLMCQENNRWLLAGVTSFGYQCALPNRPGVYARVPRFTEWIQSFLH

What was measured:
[1] = target: T1, ElaSub1_CBM_His chimeric protein …
[2] = target: T2, TrxA_ElaSub1_CBM-His fusion protein

Row | Protein | colour of the supernatant (dye release from the filter strip carrying the chimeric peptide, 30 min, 0.05 U/ml HLE) [1] | separation of the chimeric construct from the TrxA tag (SDS-PAGE) [2]
1 | B1 | Initially non coloured samples (clear supernatant) that exhibit elastase activity developed a blue colour | –
2 | B2 | – | The separation of the desired chimeric construct from the TrxA-Tag was verified by SDS-PAGE.
